Results as given in US20230067811A1, “MODULATING LYMPHATIC VESSELS IN NEUROLOGICAL DISEASE” (University of Virginia Patent Foundation, priority 2020, published 2023).

B1: VEGF-c: VEGFR3 agonist polypeptide (SEQ ID NO: 1), flow modulator; in Examples 1-3 delivered by AAV1 vector expressing VEGF-c (protein, listed as Homo sapiens)
chain: MHLLGFFSVACSLLAAALLPGPREAPAAAAAFESGLDLSDAEPDAGEATAYASKDLEEQLRSVSSVDELMTVLYPEYWKMYKCQLRKGGWQHNREQANLNSRTEETIKFAAAHYNTEILKSIDNEWRKTQCMPREVCIDVGKEFGVATNTFFKPPCVSVYRCGGCCNSEGLQCMNTSTSYLSKTLFEITVPLSQGPKPVTISFANHTSCRCMSKLDVYRQVHSIIRRSLPATLPQCQAANKTCPTNYMWNNHICRCLAQEDFMFSSDAGDDSTDGFHDICGPNKELDEETCQCVCRAGLRPASCGPHKELDRNSCQCVCKNKLFPSQCGANREFDENTCQCVCKRTCPRNQPLNPGKCACECTESPQKCLLKGKKFHHQTCSCYRRPCTNRQKACEPGFSYSEEVCRCVPSYWKRPQMS

Tests used:
human LECs = experiment: Human LECs incubated with Aβ42, bulk RNA-seq; type: cell-based; conditions: 100 nM, 24 h, vs scrambled peptide
Description: To determine whether the increased levels of Aβ alone could account for the observed changes in the LEC transcriptome, human LECs were incubated with 100 nM human Aβ1-42 (a monomeric/dimeric preparation) or control scrambled human Aβ1-42 peptide for 24 or 72 h (FIG. 5J).
Cultures of human LECs. […]
Bulk RNA sequencing. […] The mergedfastq files were then chastity filtered to remove low quality bases, trimmed using the trimmomatic software, and mapped to the UCSC […] genome using Salmon (Harrow, J. et al. GENCODE: the reference human genome annotation for The ENCODE Project. Genome Res 22, 1760-1774, (2012); Patro, R., Duggal, G., Love, M. I., Irizarry, R. A. & Kingsford, C. Salmon provides fast and bias-aware quantification of transcript expression. Nat Methods 14, 417-419, (2017)). […] The resulting transcript abundances were read into R and summarized using tximport (Soneson, C., Love, M. I. & Robinson, M. D. Differential analyses for RNA-seq: transcript-level estimates improve gene-level inferences. F1000Res 4, 1521, (2015)). […]

5×FAD mice = experiment: Meningeal lymphatic and blood vessel morphology after i.c.m. AAV1-mVEGF-C plus anti-Abeta antibody; type: in vivo, mouse; conditions: adult 5×FAD mice, AAV1 vector i.c.m., meningeal whole mounts
Description: Adult 5×FAD mice were treated with a combination of VEGF-c and an antibody that binds amyloid beta (ABETA Mab1) administered into the cisterna magna (i.c.m). After administration of AAV1 vector expressing VEGF-c or eGFP and the antibody according to schematic shown in FIG. 1A, brain and meningeal morphology was observed. Representative images of the meningeal whole-mounts of 5×FAD mice treated with different combinations of mIgG2a or monoclonal anti-amyloid beta antibody (“ABETA Ab”) with AAV1-CMV-eGFP or AAV1-CMV-mVEGF-C are shown in FIG. 1B. Meninges were stained for LYVE-1 and CD31; scale bar, 1 mm; inset, 300 m (FIG. 1B) Measurements of transverse sinus diameter, coverage by LYVE-1negCD31^+ blood vessels, total number of lymphatic branches, transverse sinus lymphatic vessel diameter and coverage by LYVE-1+ lymphatic vessels (See FIGS. 1C-1G). Results in FIGS. 1C-1G are presented as mean±s.e.m.; n=7 in eGFP+mIgG2a, n=6 in eGFP+ABETA Ab, in mVEGF-C+mIgG2a and in mVEGF-C+ABETA Ab; Two-way ANOVA with Sidak's multiple comparison test. In FIGS. 1D and 1G, the units for the Y-axis are percentage of field of view (“% FOV”).
Science 352, 712-716, (2016)) or microhemorrhages in the brain and meninges (Salloway, S. et al. Two phase 3 trials of bapineuzumab in mild-to-moderate Alzheimer's disease. […]

APPswe mice = experiment: Brain Aβ plaques in aged APPswe mice after i.c.m. AAV1-mVEGF-C plus anti-Abeta antibody; type: in vivo, mouse; conditions: with anti-amyloid beta antibody, vs eGFP vector
From the text: Age of APPswe mice and treatment regimen of anti-amyloid beta antibody with AA1 vector expressing VEGF-c or eGFB via i.c.m are shown in FIG. 3A. Results of behavioral tests (open field (OF), novel location recognition (NLR) and contextual fear conditioning (CFC)) are shown in FIGS. 3B-3D. […] Time investigating one of the object location (% of total time investigating objects) in the training trial and time investigating the novel object location (% of total time investigating) in the NLR test are shown in FIG. 3C. Representative images of the brain sections of APPswe mice treated with anti-Abeta antibody and with AAV1-CMV-eGFP or AAV1-CMV-mVEGF-C are shown in FIG. 3E. Brain sections were stained for Aβ and with DAPI; scale bar, 1 mm. FIGS. 3F-3G show plaque density (number of plaques per mm^2), average size (m^2) and coverage (% of brain section) in the cortex and amygdala or in the hippocampus. Results in FIGS. 3B-3D, 3F, and 3G are presented as mean s.e.m.; n=11 per group; Two-tailed unpaired Student's T test.
Intra-cisterna magna and intravenous injections. Mice were anaesthetized by intraperitoneal (i.p.) injection of a mixed solution of ketamine (100 mg/Kg) and xylazine (10 mg/Kg) in saline. […]
Immunohistochemistry, imaging and quantifications. […]

[1] = tested on: meningeal lymphatic vessels; conditions: Example 4 of WO2017/210343; cited from earlier work

Molecule	gene expression in human LECs (human LECs)	lymphatic diameter (5×FAD mice)	number of plaques in the cortex and amygdala (APPswe mice)	number of plaques in the hippocampus (APPswe mice)	diameters of meningeal lymphatic vessels [1]
Aβ1-42: synthetic monomeric/dimeric human amyloid beta 1-42 peptides (Anaspec AS-20276)	Changes in gene expression				
B1		increased lymphatic diameter	reduced the number of plaques	reduced the number of plaques	increase the diameters of meningeal lymphatic vessels
